Test results from patent US20060177441A1 (Genentech, published 2006).

T1: mpl-Ig (UniProt P40238 26-491)
T1 construct: Used as conditioned medium of mpl-Ig-transfected 293 cells, captured on anti-human IgG Fc plates; also called Mpl (Mpl/TPO ELISA); not shown: Ig part, captured by rabbit anti-human IgG Fc
T1 sequence (looked up): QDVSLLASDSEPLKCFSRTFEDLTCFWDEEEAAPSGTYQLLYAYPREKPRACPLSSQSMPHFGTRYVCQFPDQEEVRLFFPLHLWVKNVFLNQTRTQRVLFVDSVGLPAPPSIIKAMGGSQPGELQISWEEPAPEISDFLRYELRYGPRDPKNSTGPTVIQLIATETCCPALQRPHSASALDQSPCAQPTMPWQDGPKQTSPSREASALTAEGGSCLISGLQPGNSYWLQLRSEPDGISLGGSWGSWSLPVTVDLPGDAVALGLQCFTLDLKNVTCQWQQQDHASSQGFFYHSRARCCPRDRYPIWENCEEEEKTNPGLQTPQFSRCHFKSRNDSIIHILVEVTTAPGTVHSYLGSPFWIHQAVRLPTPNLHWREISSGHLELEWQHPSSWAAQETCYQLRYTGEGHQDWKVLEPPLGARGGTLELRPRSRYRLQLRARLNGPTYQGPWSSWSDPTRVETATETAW

T2: c-mpl (thrombopoietin receptor) on HU-03 cells, human platelets or human cord blood cells (human, UniProt P40238 26-635)
T2 construct: whole, on cells; also called mpl receptor; TPO receptor
T2 sequence (looked up): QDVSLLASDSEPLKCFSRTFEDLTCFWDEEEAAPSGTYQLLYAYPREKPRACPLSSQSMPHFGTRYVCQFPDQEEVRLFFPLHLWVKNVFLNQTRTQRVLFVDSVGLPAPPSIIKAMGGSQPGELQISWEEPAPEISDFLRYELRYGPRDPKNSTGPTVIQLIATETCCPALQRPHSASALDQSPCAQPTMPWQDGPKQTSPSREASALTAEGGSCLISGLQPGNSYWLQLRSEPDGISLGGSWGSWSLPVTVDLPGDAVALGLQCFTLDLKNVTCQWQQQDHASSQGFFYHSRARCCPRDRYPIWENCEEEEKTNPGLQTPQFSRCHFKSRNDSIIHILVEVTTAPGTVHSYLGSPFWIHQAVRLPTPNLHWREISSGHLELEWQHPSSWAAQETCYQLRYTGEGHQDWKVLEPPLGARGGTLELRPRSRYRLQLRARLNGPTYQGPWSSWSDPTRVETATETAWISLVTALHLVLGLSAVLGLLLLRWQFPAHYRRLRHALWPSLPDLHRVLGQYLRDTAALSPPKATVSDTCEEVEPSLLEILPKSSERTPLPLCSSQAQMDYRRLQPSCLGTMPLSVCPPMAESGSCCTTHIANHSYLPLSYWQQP

B1: 12B5 IgG (antibody, from another filing)
scFv: QVQLVQSGGGLVRPGGSLSLSCAVSGITLRTYGMHWVRQAPGKGLEWVAGISFDGRSEYYADSVQGRFTISRDSSKNTLYLQMNSLRAEDTAVYYCARGAHYGFDIWGQGTMVTVSSGGGGTGGGGSGGGGSDIQMTQSPSTLSASIGDRVTITCRASEGIYHWLAWYQQKPGKAPKLLIYKASSLASGAPSRFSGSGSGTDFTLTISSLQPDDFATYYCQQYSNYPLTFGGGTKLEIK
B2: 12E10 Fab (Fab, V domains shown)
VH: QVQLQQSGPGLVKPSETLSLTCTVSGDSISSYYWSWIRQPPGKGLEWIGYIYYSGSTNYNPSLKSRVTISVDTSKSQFSLKLSSVTAADTAVYYCARGRYFDVWGRGTMVTVSS
VL: SYVLTQPPSVSGSPGQSITISCTGTSSDVGGYNYVSWYQQHPGKAPKLMIYEGSKRPSGVSNRFSGSKSGNTASLTISGLQAEDEADYYCSSYTTRSTRVFGGGTKLTVL
notes: Monovalent Fab′ from E. coli: human IgG1 CH1 ending thr-ala-ala-pro, human kappa1 CL (pXCA730) or human lambda CL (pXCA970)
B3: 12E10 Fab′2 (other)
VH: B2 VH
VL: B2 VL
notes: F(ab′)2 with leucine zipper, expressed in E. coli from pXCA740; copies: 2 + 2
B4: 12E10 IgG (antibody, V domains shown)
VH: B2 VH
VL: B2 VL
notes: Full length antibody with human IgG1 CH1, CH2 and CH3 domains, expressed in 293 or CHO cells; also called full length human antibody derivative of 12E10

What was measured:
[1] = molecular target: c-mpl (thrombopoietin receptor) on HU-03 cells, human platelets or human cord blood cells (human) (UniProt P40238); experiment: Platelets: competition with 125I-TPO (100 pM) on human platelets
[2] = molecular target: mpl-Rse.gD chimeric receptor (human) (UniProt P40238); experiment: cell-based or functional assay
[3] = molecular target: c-mpl (thrombopoietin receptor) on HU-03 cells, human platelets or human cord blood cells (human) (UniProt P40238); experiment: cell-based or functional assay
[4] = molecular target: c-mpl (thrombopoietin receptor) on HU-03 cells, human platelets or human cord blood cells (human) (UniProt P40238); experiment: Hu3 Binding: competition with 125I-TPO (100 pM) on HU-03 cells
mpl-Ig = molecular target: T1, mpl-Ig; experiment: Mpl/TPO ELISA: inhibition of biotinylated TPO binding to captured mpl-Ig
[5] = molecular target: T2, c-mpl (thrombopoietin receptor) on …; experiment: Hu3 Binding: competition with 125I-TPO (100 pM) on HU-03 cells
Description: (§1) HU-03 cells were agitated during the incubation period to keep them in suspension. The reaction mixture was overlayed on 1 ml 20% sucrose-HBSSB and microcentrifuged at 13,500 rpm for five minutes. The supernatants were aspirated, tube bottoms containing the cell pellets were cut off, and cell- or platelet-associated radioactivity was measured with an Iso Data Model 120 gamma counter.

[6] = molecular target: T2, c-mpl (thrombopoietin receptor) on …; experiment: Platelets: competition with 125I-TPO (100 pM) on human platelets
Description: as §1

| Binder | IC50 [1] [nM] | KIRA (ED50) [2] [nM] | Hu3 Proliferation (ED50) [3] [nM] | IC50 [4] [nM] | IC50 (mpl-Ig) [nM] | IC50 [5] [nM] | IC50 [6] [nM] |
| --- | --- | --- | --- | --- | --- | --- | --- |
| B1 | 300 | 0.4 | 0.03 | 10 | 0.152 |  |  |
| B2 |  |  |  |  | 180 | 500 |  |
| B3 |  |  |  |  | 640 | 10 | 500 |
| B4 |  |  |  |  | 0.45 | 50 | 500 |
